Consider five molecules from publication doi:10.1101/2022.08.26.505376 (bioRxiv, 2022).

Numbering of substitutions follows the chain as printed. Like-named read-outs stand apart in the source and are kept apart here.

Usually stoichiometry N stands for the number of molecules, sites or subunits per partner or assembly.

First the molecules themselves.
B1: KaiA (natural protein)
chain: MLSQIAICIWVESTAILQDCQRALSADRYQLQVCESGEMLLEYAQTHRDQIDCLILVAANPSFRAVVQQLCFEGVVVPAIVVGDRDSEDPDEPAKEQLYHSAELHLGIHQLEQLPYQVDAALAEFLRLAPVETMADHIMLMGANHDPELSSQQRDLAQRLQERLGYLGVYYKRDPDRFLRNLPAYESQKLHQAMQTSYREIVLSYFSPNSNLNQSIDNFVNMAFFADVPVTKVVEIHMELMDEFAKKLRVEGRSEDILLDYRLTLIDVIAHLCEMYRRSIPRET
B2: KaiC (natural protein)
chain: MTSAEMTSPNNNSEHQAIAKMRTMIEGFDDISHGGLPIGRSTLVSGTSGTGKTLFSIQFLYNGIIEFDEPGVFVTFEETPQDIIKNARSFGWDLAKLVDEGKLFILDASPDPEGQEVVGGFDLSALIERINYAIQKYRARRVSIDSVTSVFQQYDASSVVRRELFRLVARLKQIGATTVMTTERIEEYGPIARYGVEEFVSDNVVILRNVLEGERRRRTLEILKLRGTSHMKGEYPFTITDHGINIFPLGAMRLTQRSSNVRVSSGVVRLDEMCGGGFFKDSIILATGATGTGKTLLVSRFVENACANKERAILFAYEESRAQLLRNAYSWGMDFEEMERQNLLKIVCAYPESAGLEDHLQIIKSEINDFKPARIAIDSLSALARGVSNNAFRQFVIGVTGYAKQEEITGLFTNTSDQFMGAHSITDSHISTITDTIILLQYVEIRGEMSRAINVFKMRGSWHDKAIREFMISDKGPDIKDSFRNFERIISGSPTRITVDEKSELSRIVRGVQEKGPES
B3: KaiCDT (phosphorylation mimic KaiC) (natural protein)
chain: B2 chain with S431D
B4: KaiCAA (dephosphorylation mimic KaiC) (natural protein)
chain: B2 chain with S431A, T432A
B5: KaiB (natural protein)
chain: MSPRKTYILKLYVAGNTPNSVRALKTLKNILEVEFQGVYALKVIDVLKNPQLAEEDKILATPTLAKVLPLPVRRIIGDLSDREKVLIGLDLLYGELQDSDDF

Holding throughout (experiment): AUC
Data set [1] concerns the molecule itself.
Data set [2] concerns the molecule itself. The source holds these as a separate data set.
The data set “KaiA” addresses B1.
The data set “KaiC” deals with B2.
The target in data set [3] is B3.

As for B1, the “stoichiometry N” value in “AUC [1]” came out at 2.

Regarding B2, the “stoichiometry N” value in “AUC [2]” amounted to 6.

Consider B3, for which, in the data set “AUC [1]”, the binding result is given as “binds”.

Regarding B4, the “stoichiometry N” value in “AUC [2]” was determined as 6. In addition, the binding result with KaiA is on record as “binds”.

In the case of B5, the binding result (with KaiC; in data set [3]) was “binds” in each case. The “stoichiometry N” value in “AUC [1]” came out at 4.
